# Residue numbers refer to the chain shown, from its start. Names may count otherwise.
# B1: PEGylated SK C-Cys (SEQ ID NO 490), Cys at C + 1 position in SK (other)
# chain: IAGPEWLLDRPSVNNSQLVVSVAGTVEGTNQDISLKFFEIDLTSRPAHGGKTEQGLSPKSKPFATDSGAMSHKLEKADLLKAIQEQLIANVHSNDDYFEVIDFASDATITDRNGKVYFADKDGSVTLPTQPVQEFLLSGHVRVRPYKEKPIQNQAKSVDVEYTVQFTPLNPDDDFRPGLKDTKLLKTLAIGDTITSQELLAQAQSILNKNHPGYTIYERDSSIVTHDNDIFRTILPMDQEFTYRVKNREQAYRINKKSGLNEEINNTDLISEKYYVLKKGEKPYDPFDRSHLKLFTIKYVDVDTNELLKSEQLLTASERNLDFRDLYDPRDKAKLLYNNLDAFGIMDYTLTGKVEDNHDDTNRIITVYMGKRPEGENASYHLAYDKDRYTEEEREVYSYLRYTGTPIPDNPNDKC
# modifications: PEG (thiol-reactive methoxy-PEG maleimide) on the Cys at C + 1 position
# B2: native streptokinase nSK (1-414) ATCC 12449 (SEQ ID NO 1) (other)
# chain: IAGPEWLLDRPSVNNSQLVVSVAGTVEGTNQDISLKFFEIDLTSRPAHGGKTEQGLSPKSKPFATDSGAMSHKLEKADLLKAIQEQLIANVHSNDDYFEVIDFASDATITDRNGKVYFADKDGSVTLPTQPVQEFLLSGHVRVRPYKEKPIQNQAKSVDVEYTVQFTPLNPDDDFRPGLKDTKLLKTLAIGDTITSQELLAQAQSILNKNHPGYTIYERDSSIVTHDNDIFRTILPMDQEFTYRVKNREQAYRINKKSGLNEEINNTDLISEKYYVLKKGEKPYDPFDRSHLKLFTIKYVDVDTNELLKSEQLLTASERNLDFRDLYDPRDKAKLLYNNLDAFGIMDYTLTGKVEDNHDDTNRIITVYMGKRPEGENASYHLAYDKDRYTEEEREVYSYLRYTGTPIPDNPNDK
# B3: PEGylated SK D96C (SEQ ID NO 31) (other)
# chain: B2 chain with D96C
# modifications: PEG (thiol-reactive methoxy-PEG maleimide) on Cys 96
# B4: PEGylated SK L179C (SEQ ID NO 41) (other)
# chain: B2 chain with L179C
# modifications: PEG (thiol-reactive methoxy-PEG maleimide) on Cys 179
# B5: PEGylated SK D95C (SEQ ID NO 30) (other)
# chain: B2 chain with D95C
# modifications: PEG (thiol-reactive methoxy-PEG maleimide) on Cys 95
# B6: PEGylated SK Lys 257 Cys (SEQ ID NO 48) (other)
# chain: B2 chain with K257C
# modifications: PEG (thiol-reactive methoxy-PEG maleimide) on Cys 257
# B7: PEGylated SK Ser 258 Cys (SEQ ID NO 49) (other)
# chain: B2 chain with S258C
# modifications: PEG (thiol-reactive methoxy-PEG maleimide) on Cys 258
# B8: PEGylated SK K121C (SEQ ID NO 35) (other)
# chain: B2 chain with K121C
# modifications: PEG (thiol-reactive methoxy-PEG maleimide) on Cys 121
# B9: PEGylated SK S105C (SEQ ID NO 33) (other)
# chain: B2 chain with S105C
# modifications: PEG (thiol-reactive methoxy-PEG maleimide) on Cys 105
# B10: PEGylated SK N255C (SEQ ID NO 46) (other)
# chain: B2 chain with N255C
# modifications: PEG (thiol-reactive methoxy-PEG maleimide) on Cys 255
# B11: PEGylated SK D173C (SEQ ID NO 39) (other)
# chain: B2 chain with D173C
# modifications: PEG (thiol-reactive methoxy-PEG maleimide) on Cys 173
# B12: PEGylated SK L260C (SEQ ID NO 50) (other)
# chain: B2 chain with L260C
# modifications: PEG (thiol-reactive methoxy-PEG maleimide) on Cys 260
# B13: PEGylated SK D102C (SEQ ID NO 32) (other)
# chain: B2 chain with D102C
# modifications: PEG (thiol-reactive methoxy-PEG maleimide) on Cys 102
# B14: PEGylated SK N-Cys (SEQ ID NO 489), Cys at N - 1 position in SK (other)
# chain: CIAGPEWLLDRPSVNNSQLVVSVAGTVEGTNQDISLKFFEIDLTSRPAHGGKTEQGLSPKSKPFATDSGAMSHKLEKADLLKAIQEQLIANVHSNDDYFEVIDFASDATITDRNGKVYFADKDGSVTLPTQPVQEFLLSGHVRVRPYKEKPIQNQAKSVDVEYTVQFTPLNPDDDFRPGLKDTKLLKTLAIGDTITSQELLAQAQSILNKNHPGYTIYERDSSIVTHDNDIFRTILPMDQEFTYRVKNREQAYRINKKSGLNEEINNTDLISEKYYVLKKGEKPYDPFDRSHLKLFTIKYVDVDTNELLKSEQLLTASERNLDFRDLYDPRDKAKLLYNNLDAFGIMDYTLTGKVEDNHDDTNRIITVYMGKRPEGENASYHLAYDKDRYTEEEREVYSYLRYTGTPIPDNPNDK
# modifications: PEG (thiol-reactive methoxy-PEG maleimide) on the Cys at N - 1 position
# B15: bi-pegylated NC 1-383 (SEQ ID NO 493), Cys at N - 1 and at C + 1 position in SK (1-383, G3) (other)
# chain: CIAGPEWLLDRPSVNNSQLVVSVAGTVEGTNQDISLKFFEIDLTSRPAHGGKTEQGLSPKSKPFATDSGAMSHKLEKADLLKAIQEQLIANVHSNDDYFEVIDFASDATITDRNGKVYFADKDGSVTLPTQPVQEFLLSGHVRVRPYKEKPIQNQAKSVDVEYTVQFTPLNPDDDFRPGLKDTKLLKTLAIGDTITSQELLAQAQSILNKNHPGYTIYERDSSIVTHDNDIFRTILPMDQEFTYRVKNREQAYRINKKSGLNEEINNTDLISEKYYVLKKGEKPYDPFDRSHLKLFTIKYVDVDTNELLKSEQLLTASERNLDFRDLYDPRDKAKLLYNNLDAFGIMDYTLTGKVEDNHDDTNRIITVYMGKRPEGENASYHLAGGGC
# modifications: PEG on the Cys at N - 1 and on the C-terminal Cys placed after three glycine residues
# B16: bi-pegylated NC 1-414 (SEQ ID NO 491), Cys at N - 1 and at C + 1 position in SK (other)
# chain: CIAGPEWLLDRPSVNNSQLVVSVAGTVEGTNQDISLKFFEIDLTSRPAHGGKTEQGLSPKSKPFATDSGAMSHKLEKADLLKAIQEQLIANVHSNDDYFEVIDFASDATITDRNGKVYFADKDGSVTLPTQPVQEFLLSGHVRVRPYKEKPIQNQAKSVDVEYTVQFTPLNPDDDFRPGLKDTKLLKTLAIGDTITSQELLAQAQSILNKNHPGYTIYERDSSIVTHDNDIFRTILPMDQEFTYRVKNREQAYRINKKSGLNEEINNTDLISEKYYVLKKGEKPYDPFDRSHLKLFTIKYVDVDTNELLKSEQLLTASERNLDFRDLYDPRDKAKLLYNNLDAFGIMDYTLTGKVEDNHDDTNRIITVYMGKRPEGENASYHLAYDKDRYTEEEREVYSYLRYTGTPIPDNPNDKC
# modifications: PEG (methoxy-PEG maleimide, 20 KDa) on the Cys at N - 1 and on the Cys at C + 1
# Molecular target: human plasminogen (HPG) (human) (UniProt P00747)
# Sequence (P00747 97-810): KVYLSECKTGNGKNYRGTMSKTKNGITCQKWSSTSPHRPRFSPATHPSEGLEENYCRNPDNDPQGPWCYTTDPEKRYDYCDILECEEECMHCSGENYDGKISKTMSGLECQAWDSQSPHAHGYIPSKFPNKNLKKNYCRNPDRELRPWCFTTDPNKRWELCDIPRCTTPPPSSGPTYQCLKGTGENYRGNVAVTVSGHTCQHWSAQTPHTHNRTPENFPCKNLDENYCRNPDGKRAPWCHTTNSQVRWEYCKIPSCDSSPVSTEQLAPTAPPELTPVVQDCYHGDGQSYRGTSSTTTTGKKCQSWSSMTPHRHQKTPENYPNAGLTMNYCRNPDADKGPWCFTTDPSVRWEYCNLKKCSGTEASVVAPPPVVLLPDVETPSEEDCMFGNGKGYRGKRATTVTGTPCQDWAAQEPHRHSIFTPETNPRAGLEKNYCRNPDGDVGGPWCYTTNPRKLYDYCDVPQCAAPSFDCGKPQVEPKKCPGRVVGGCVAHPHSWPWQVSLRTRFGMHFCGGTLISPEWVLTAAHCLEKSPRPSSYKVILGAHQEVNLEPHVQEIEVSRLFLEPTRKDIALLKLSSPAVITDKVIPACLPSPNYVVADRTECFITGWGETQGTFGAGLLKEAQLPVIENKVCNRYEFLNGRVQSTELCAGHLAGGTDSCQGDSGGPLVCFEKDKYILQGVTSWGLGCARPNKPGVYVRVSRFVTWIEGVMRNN
# Assay: cell-based or functional assay
row,Molecule,% Plasminogen activation
1,"PEGylated SK C-383 Cys (SEQ ID NO 492), Cys at C + 1 position of SK 1-383, G3 (from UniProt P00779 27-409)",92%

# Molecular target: T1, human plasminogen (HPG) (human, UniProt P00747 97-810)
# T1 sequence (P00747 97-810): as above
# Assay: cell-based or functional assay
row,Molecule,% Plasminogen activation
1,B1,95%
2,B2,100%
3,B3,98%
4,B4,22%
5,B5,96%
6,B6,92%
7,B7,100%
8,B8,95%
9,B9,76%
10,B10,98%
11,B11,72%
12,B12,100%
13,B13,74%
14,B14,88%

# Molecular target: T1, human plasminogen (HPG)
# Assay: cell-based or functional assay
# Remark: another data set of the same source
Molecule,% Plasminogen Activation* (pre-complexed with equimolar plasmin),% Plasminogen activation,Lag
B2,100%,100%,1 min
B15,92%,< 5%,12 min
B16,88%,< 5%,14 min

# Reference: patent US20120213763A1 (COUNCIL OF SCIENTIFIC AND INDUSTRIAL RESEARCH, published 2012)
